{"source": "paper PMC4532887", "about": "“Structural and mechanistic insights into phospholipid transfer by Ups1–Mdm35 in mitochondria” (Nature Communications, 2015)", "binders": {"B1": {"name": "full-length Mdm35 (from the His6–Ups1–Mdm35 complex) (natural protein, S. cerevisiae, UniProt O60200 1-86, looked up)", "chain": "MGNIMSASFAPECTDLKTKYDSCFNEWYSEKFLKGKSVENECSKQWYAYTTCVNAALVKQGIKPALDEAREEAPFENGGKLKEVDK", "notes": "Mdm35, Saccharomyces cerevisiae, full length (86 residues); The coexpression plasmid encodes GST-Mdm35; also called Mdm35WT; source: E. coli SHuffle T7, coexpressed with His6-Ups1, purified (Ni-NTA, Superdex 200)"}, "B2": {"name": "full-length Mdm35 N25C (natural protein, S. cerevisiae, UniProt O60200 1-86, looked up)", "chain": "B1 chain with N25C", "notes": "Mdm35, Saccharomyces cerevisiae, full length (86 residues); The coexpression plasmid encodes GST-Mdm35; removal of GST is not described; source: E. coli SHuffle T7, coexpressed with His6-Ups1N24C, purified (Ni-NTA, Superdex 200)"}, "B3": {"name": "Mdm35ΔC5 (Mdm35 lacking the C-terminal five residues) (domain or fragment, S. cerevisiae, UniProt O60200 1-81, looked up)", "chain": "MGNIMSASFAPECTDLKTKYDSCFNEWYSEKFLKGKSVENECSKQWYAYTTCVNAALVKQGIKPALDEAREEAPFENGGKL", "notes": "Mdm35, Saccharomyces cerevisiae; full length is 86 residues, this construct lacks the C-terminal five residues; The coexpression plasmid encodes GST-Mdm35ΔC5; the stated 31 kDa of the heterodimer implies that GST was no longer on the chain, but its removal from the complex is not described; For Mdm35 crystallised alone (4YTV) GST was cleaved with PreScission protease; Disulfides Cys13–Cys52 and …"}}, "conditions_in_all_cases": "both partners purified", "key": {"[1]": {"target": "T1, full-length His6-Ups1 R25E (S. cerevisiae, UniProt Q05776 1-175, R25E)", "T1 construct": "Ups1, Saccharomyces cerevisiae, full length (175 amino acids); source: E. coli SHuffle T7, coexpressed with Mdm35, purified (Ni-NTA, Superdex 200)", "T1 sequence (looked up)": "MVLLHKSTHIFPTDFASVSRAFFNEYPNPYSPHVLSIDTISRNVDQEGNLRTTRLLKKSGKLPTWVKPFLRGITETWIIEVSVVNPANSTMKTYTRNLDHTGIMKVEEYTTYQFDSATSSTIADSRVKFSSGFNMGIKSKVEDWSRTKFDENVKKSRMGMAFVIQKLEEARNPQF", "assay": "SEC; 10 μM full-length Ups1–Mdm35 complex (WT or mutant Ups1) after incubation with NBD-PA donor liposomes and centrifugation; supernatant on Superdex 200 10/300 GL; 20 mM Tris-HCl pH 7.5, 150 mM NaCl; absorbance at 280 and 460 nm"}, "[2]": {"target": "T2, full-length His6-Ups1 K61E/K155E (S. cerevisiae, UniProt Q05776 1-175, K61E | K155E)", "T2 construct": "Ups1, Saccharomyces cerevisiae, full length (175 amino acids); source: E. coli SHuffle T7, coexpressed with Mdm35, purified (Ni-NTA, Superdex 200)", "T2 sequence (looked up)": "T1 sequence (looked up) with E25R, K61E, K155E", "assay": "SEC; 10 μM full-length Ups1–Mdm35 complex (WT or mutant Ups1) after incubation with NBD-PA donor liposomes and centrifugation; supernatant on Superdex 200 10/300 GL; 20 mM Tris-HCl pH 7.5, 150 mM NaCl; absorbance at 280 and 460 nm"}, "[3]": {"target": "T3, full-length His6-Ups1 ΔLid (lacking the Ω1 loop, residues 62–71) (S. cerevisiae, UniProt Q05776 1-175, ΔLid (lacking residues 62–71))", "T3 construct": "Ups1, Saccharomyces cerevisiae, full length (175 amino acids) less residues 62-71; source: E. coli SHuffle T7, coexpressed with Mdm35, purified (Ni-NTA, Superdex 200)", "T3 sequence (looked up)": "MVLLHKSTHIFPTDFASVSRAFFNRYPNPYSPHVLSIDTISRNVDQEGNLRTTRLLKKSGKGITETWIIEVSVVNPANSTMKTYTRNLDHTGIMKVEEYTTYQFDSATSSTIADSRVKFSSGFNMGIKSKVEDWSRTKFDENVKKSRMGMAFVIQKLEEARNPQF", "assay": "SEC; 10 μM full-length Ups1–Mdm35 complex (WT or mutant Ups1) after incubation with NBD-PA donor liposomes and centrifugation; supernatant on Superdex 200 10/300 GL; 20 mM Tris-HCl pH 7.5, 150 mM NaCl; absorbance at 280 and 460 nm"}, "[4]": {"target": "T4, full-length His6-Ups1 R25K (S. cerevisiae, UniProt Q05776 1-175, R25K)", "T4 construct": "Ups1, Saccharomyces cerevisiae, full length (175 amino acids); source: E. coli SHuffle T7, coexpressed with Mdm35, purified (Ni-NTA, Superdex 200)", "T4 sequence (looked up)": "T1 sequence (looked up) with E25K", "assay": "SEC; 10 μM full-length Ups1–Mdm35 complex (WT or mutant Ups1) after incubation with NBD-PA donor liposomes and centrifugation; supernatant on Superdex 200 10/300 GL; 20 mM Tris-HCl pH 7.5, 150 mM NaCl; absorbance at 280 and 460 nm"}, "[5]": {"target": "T5, full-length His6-Ups1 K6E/K128E (S. cerevisiae, UniProt Q05776 1-175, K6E | K128E)", "T5 construct": "Ups1, Saccharomyces cerevisiae, full length (175 amino acids); source: E. coli SHuffle T7, coexpressed with Mdm35, purified (Ni-NTA, Superdex 200)", "T5 sequence (looked up)": "T1 sequence (looked up) with K6E, E25R, K128E", "assay": "SEC; 10 μM full-length Ups1–Mdm35 complex (WT or mutant Ups1) after incubation with NBD-PA donor liposomes and centrifugation; supernatant on Superdex 200 10/300 GL; 20 mM Tris-HCl pH 7.5, 150 mM NaCl; absorbance at 280 and 460 nm"}, "[6]": {"target": "T6, full-length Ups1, N-terminally His6 tagged (from the His6–Ups1–Mdm35 complex) (S. cerevisiae, UniProt Q05776 1-175)", "T6 construct": "Ups1, Saccharomyces cerevisiae, full length (175 amino acids); Added to the assays as the purified complex with Mdm35; also called WT Ups1; Ups1WT; source: E. coli SHuffle T7, coexpressed with Mdm35, purified (Ni-NTA, Superdex 200); not shown: His6, N-terminal, kept", "T6 sequence (looked up)": "T1 sequence (looked up) with E25R", "assay": "SEC; 10 μM full-length Ups1–Mdm35 complex (WT or mutant Ups1) after incubation with NBD-PA donor liposomes and centrifugation; supernatant on Superdex 200 10/300 GL; 20 mM Tris-HCl pH 7.5, 150 mM NaCl; absorbance at 280 and 460 nm"}, "[7]": {"target": "T7, full-length His6-Ups1 N24C (S. cerevisiae, UniProt Q05776 1-175, N24C)", "T7 construct": "Ups1, Saccharomyces cerevisiae, full length (175 amino acids); In the pull-down with GST-Mdm35: the chain set free from Mdm35N25C by pretreatment with DTT; source: E. coli SHuffle T7, coexpressed with Mdm35N25C, purified (Ni-NTA, Superdex 200); not shown: His6, N-terminal, kept", "T7 sequence (looked up)": "T1 sequence (looked up) with N24C, E25R", "assay": "cross-linking; disulfide bond between Ups1N24C and Mdm35N25C on separate chains; SDS–PAGE with or without β-mercaptoethanol, CBB staining"}, "[8]": {"target": "T8, Ups1ΔC5 (Ups1 lacking the C-terminal five residues), N-terminally His6 tagged (S. cerevisiae, UniProt Q05776 1-170)", "T8 construct": "Ups1, Saccharomyces cerevisiae; full length is 175 amino acids, this construct lacks the C-terminal five residues; No removal of the His6 tag is described; the complex with PA was purified again on Ni-NTA before crystallisation; also called His6-Ups1ΔC5; source: E. coli SHuffle T7, coexpressed with Mdm35ΔC5, purified (Ni-NTA, Superdex 200); not shown: His6, N-terminal, kept", "T8 sequence (looked up)": "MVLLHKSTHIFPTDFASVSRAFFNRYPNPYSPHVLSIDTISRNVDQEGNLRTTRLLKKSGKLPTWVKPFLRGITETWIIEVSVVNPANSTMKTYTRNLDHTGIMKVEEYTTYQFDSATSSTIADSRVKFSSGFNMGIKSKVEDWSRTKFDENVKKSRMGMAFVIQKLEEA", "assay": "crystal structure; Ups1ΔC5–Mdm35ΔC5 complex without PA, 1.40 Å; sitting drop at 20 °C, 0.2 M ammonium citrate tribasic pH 7.0, 20% polyethylene glycol 3,350"}}, "note": "Residue numbers refer to the chain shown, from its start."}
{"binder": "B1", "values": [{"measurement": "binding result", "setting": "[1]", "result": "binds"}, {"measurement": "binding result", "setting": "[2]", "result": "binds"}, {"measurement": "binding result", "setting": "[3]", "result": "binds"}, {"measurement": "binding result", "setting": "[4]", "result": "binds"}, {"measurement": "binding result", "setting": "[5]", "result": "binds"}, {"measurement": "binding result", "setting": "[6]", "result": "binds"}]}
{"binder": "B2", "values": [{"measurement": "binding result", "setting": "[7]", "result": "binds"}]}
{"binder": "B3", "values": [{"measurement": "binding result", "setting": "[8]", "result": "binds"}]}
